Experimental data published in patent US20180362628A1 (KYMAB, published 2018).
Substitutions are numbered along the chain they refer to.

B1: Antibody 668 Fab (Fab, V domains shown)
VH: QVQLVQSGAEVKKPGASVKVSCKASGFTFTDYAMHWVRQAPGQRLEWMGWINAGNGYTKYSQKFQDRLTITRDTFASTVYMELSSLRSEDTTVYYCARDGFCPSNTCSGYYGMDVWGQGTTVTVSS
VL: QSALTQPASVSGSPGQSITISCTGTSSDVGSYNYVSWYQQHPGKAPKLMIYDVNTRPSGVSIRFSASKSGNTASLTVSGLQAEDEAVYYCSSYAGSSTWVFGGGTKLTVL
notes: recombinant human Fab from CHO-3E7 cells, purified on nickel columns
B2: Antibody 669 Fab (Fab, V domains shown)
VH: QVQLVQSGAEVKKPGASVRVSCKASGFTFTSYAMHWVRQAPGQRLEWMGWINAGNGHTKYSQKFQDRVAITRDTSATTVYMDLSSLRSEDTAVYYCTRDGFCTSTTCSDHYGMDVWGQGTTVTVSS
VL: B1 VL with L48F, N54S, T55K, I62N, A66G, V77I, V87D, S91C
notes: as for B1
B3: Antibody 667 Fab (Fab, V domains shown)
VH: QVQLVQSGAEVKKPGASVKVSCRASGYTFTNYAMHWVRQAPGQRLEWMGWINAGNGYTKYSQKFQDRVTITRDTSATTAYMELSSLRSEDTAMYYCARDSFYDILSGPVYHYYGMDVWGQGTTVTVSS
VL: QSALTQPDSVSGSPGQSITISCTGTSNDVGIYNHVSWYQQHPGKAPKLMIYDVNKRPSGISNRFSGSKSGDTASLTISGLQAEDEADYYCCSYAGSSAWVFGGGTKLTVL
notes: as for B1
B4: Antibody 666 Fab (Fab, V domains shown)
VH: QVQLVQSGAEVKKPGASVKVSCKASGYTFTNYAMHWVRQAPGQRLEWMGWINAGNGNTKYSQNFQGRVTITRDTSASTAYMELSSLRSEDTAVYYCARDEYYASGSYYDYYYYGMDVWGQGTTVTVTS
VL: QSALTQPASVSGSPGQSITISCTGTSSDVGVYNYVSWFQQHPGKAPKLMIYNVSKRPSGVSNRFSGSKSGNTASLTISGLQAEDEADYYCCSYAGSSTWVFGGGTNLTVL
notes: as for B1
B5: CL-141766 (antibody, V domains shown)
VH: B4 VH with N31S, N63K, R67G, E100N, A103D, T127S
VL: B4 VL with I20F, V31S, Y34H, F38Y, N52D, N106K
notes: human IgG1, HEK (Expi293F) culture supernatant
B6: CL-141779 (antibody, V domains shown)
VH: B4 VH with N31S, N63K, E100Q, A103D, S104I, G105L, S106T, Y107P, D109Y, T127S
VL: B4 VL with V31G, F38Y, N52V, N106K
notes: as for B5
B7: CL-141783 (antibody, V domains shown)
VH: QVQLVQSGAEVKKPGASVKLSCKASGYTFTNYAMHWVRQAPGQSLEWMGWINAGNGYTKYSQKFQGRVTITRDTSANTAYMDLSSLRSEDTAVYYCARDQYYDILKGYYNVDYYYGMDVWGQGTTVAVSS
VL: B4 VL with V31S, Y34H, F38Y, N52D, N62D, A94V, N106K
notes: as for B5
B8: CL-141790 (antibody, V domains shown)
VH: QVQLVQSGAEVKRPGASVKISCKASGYTFTNYAIHWVRQAPGQRLEWMGWINAGNGYTKYSQKFQGRVTITRDTSATSAYLELYSLISEDTAVYYCVRDEYYDSGSSNYYYYGMDVWGQGTTVTVSS
VL: B4 VL with V31N, Y34H, F38Y, G43D, N52D, N106K
notes: as for B5
B9: CL-141786 (antibody, V domains shown)
VH: QVQLLQSGAEVKKPGASVKVSCKASGYTFTNYAMHWLRQAPGQRLEWMGWINAGNGYTKYSQKFQGRVTITRDTSATTAYMDLSSLRSEDTAVYYCARDNYYDSNVYNSYYFYGMDVWGQGTTVTVSS
VL: B3 VL with A3V, D8A, S13P, N27S, I31N, G43D, D71N, A98T
notes: as for B5
B10: CL-141792 (antibody, V domains shown)
VH: QVQLVQSGAEVKKPGASVKVSCKASGYTFTSYAMHWVRQAPGQRLEWMGWINAGNGYTKYSQNFQGRVTITRDTSASTAYMELSSLRSEDTAVYYCARDNYFDSSVYDSSYYFYYGMDVWGQGTTVTVSS
VL: B4 VL with V31S, Y34H, F38Y, N52D, N106K
notes: as for B5
B11: CL-141806 (antibody, V domains shown)
VH: QVQLVQSGAEVKKPGASVKVSCKASGYTFTNYAIHWVRQAPGQRLEWMGWINAGNGNTKYSQKFQGRVTITRDTSASTAYMELSSLRSEDTAVYYCARDNFYGSGTYFSYFFYHMDVWGQGTTVTVSS
VL: B4 VL with V31S, Y34H, F38Y, N52D, V60M, N62D, N106K
notes: as for B5
B12: CL-141785 (antibody, V domains shown)
VH: B2 VH with T30I, R44G, N55D, T97S, S104T
VL: B4 VL with V31S, F38Y, L48F, N52D, N62D, N106K
notes: as for B5
B13: CL-141791 (antibody, V domains shown)
VH: B3 VH with Y80H, S106T
VL: B3 VL with I31V, N54S, I60V, D71N, A94V, K106N
notes: as for B5
B14: CL-141802 (antibody, V domains shown)
VH: QVQLVQSGTEVKKPGASVKVSCKASGFTFSSYAMHWVRQAPGQRLEWMGWINAGNGNTKYSQKFQGRVTITRDTSASTAYMELSSLRSEDTAVYYCARDGYCSSTSCYGYYGMDVWGQGTTVTVSS
VL: B1 VL with S31A, Y51S, N54S, T55K, I62N, A66G, G70D, S91C
notes: as for B5
B15: CL-141784 (antibody, V domains shown)
VH: QVQLVQSGAEVKNPGASLKVSCKASGYTFTNYAMHWVRQAPGQRLEWMGWINAGNGYTKYSQTFQGRVTITRDTYASTAYMELSSLRSEDTAVYYCVRDEYYESGSSNYYYYGMDVWGQGTTVTVSS
VL: B4 VL with V31S, Y34H, F38Y, N52D, K55T, N106K, L107M
notes: as for B5
B16: CL-141805 (antibody, V domains shown)
VH: B4 VH
VL: B4 VL
notes: as for B5
B17: CL-141772 (antibody, V domains shown)
VH: QVQLVQSGAEVKKPGASVKVSCKASGFIFINYAMQWVRQAPGQRLEWMGWINAGNGYTKYSQKFQGRVTITRDISANTVYMELSSLRSEDTAVYYCARDGFCSTTTCSDHYGMDVWGQGTTVTVSS
VL: B4 VL with V31G, F38Y, N52D, N62D, A82T, N106K
notes: as for B5
B18: CL-141776 (antibody, V domains shown)
VH: B2 VH with K13N, R19K, S31N, V79A, D82E, T97S, T103S, S104T
VL: B4 VL with V31G, F38Y, L48F, N52D, N106K
notes: as for B5
B19: CL-141781 (antibody, V domains shown)
VH: B3 VH with T30S, A97S, S106T
VL: B3 VL with I31V, N54S, I60V, D71N, A94V, S96N
notes: as for B5
B20: CL-141789 (antibody, V domains shown)
VH: B2 VH with A24T, M34I, H35Q, R44G, N55D, A69V, S104T
VL: B4 VL with V31S, F38Y, A45V, L48F, Y51S, N52D, V60I, N62D, S96G, N106K
notes: as for B5
B21: CL-141769 (antibody, V domains shown)
VH: B3 VH with V68F, M93V, S106T
VL: B3 VL with I31V, N54S, I60V, D71N, A86S, A98T
notes: as for B5
B22: CL-141799 (antibody, V domains shown)
VH: B1 VH
VL: B1 VL with S31A, N33K, I62T
notes: as for B5

What follows are molecules tested against T1, Recombinant CSP (Wellcome Trust Sanger Institute, FIG. 22), CSP ectodomain with BirA biotinylation tag, … (Plasmodium falciparum strain 3D7, UniProt Q7K740 19-376, biotinylated at the BirA substrate peptide) (assay: SPR (ProteOn), biotinylated CSP on NLC chip, Fab as analyte, 25 C, 1:1 fit).
T1 construct: extracellular domain; Expressed in HEK293, 45 kDa; order of the tags is that of the legend, not confirmed; also called biotinylated recombinant CSP
Work on B1 yielded a Kd of 12.5 nM, a koff of 0.000473 s⁻¹ and a kon of 37900 M⁻¹ s⁻¹.
For B2, the Kd was 126 nM, the koff was 0.00211 s⁻¹ and the kon was 16800 M⁻¹ s⁻¹.
B3 showed a Kd of 31.6 nM, a koff of 0.00079 s⁻¹ and a kon of 25000 M⁻¹ s⁻¹.
B4 showed a Kd of 52 nM, a koff of 0.00249 s⁻¹ and a kon of 48000 M⁻¹ s⁻¹.

Each molecule was assayed against T2, full CSP protein (analyte of Example 12) (Plasmodium falciparum (isolate 3D7), UniProt Q7K740 19-374) (assay: SPR, IgG1 from supernatant on anti-human IgG surface, CSP as analyte, 25 C, 1:1 fit).
T2 construct: not shown: C-terminal tags
For B5, the kon was 528000 M⁻¹ s⁻¹.
In the case of B6, the kon is reported as 298000 M⁻¹ s⁻¹.
Work on B7 yielded a kon of 128000 M⁻¹ s⁻¹.
B8 gave a kon of 428000 M⁻¹ s⁻¹.
B9 showed a kon of 457000 M⁻¹ s⁻¹.
Molecule B10 has a kon of 51300 M⁻¹ s⁻¹.
Molecule B11 has a kon of 284000 M⁻¹ s⁻¹.
Work on B12 yielded a kon of 573000 M⁻¹ s⁻¹.
B13 showed a kon of 253000 M⁻¹ s⁻¹.
For B14, the kon was 313000 M⁻¹ s⁻¹.
For B15, the kon was 541000 M⁻¹ s⁻¹.
With B16 the kon was 1.19e+06 M⁻¹ s⁻¹.
B17 was tested, and the kon was 338000 M⁻¹ s⁻¹.
B18 showed a kon of 143000 M⁻¹ s⁻¹.
B19 showed a kon of 221000 M⁻¹ s⁻¹.
Work on B20 yielded a kon of 293000 M⁻¹ s⁻¹.
Work on B21 yielded a kon of 156000 M⁻¹ s⁻¹.
In the case of B22, the kon is reported as 486000 M⁻¹ s⁻¹.

The molecules below were run against Recombinant CSP (Wellcome Trust Sanger Institute, FIG. 22), CSP ectodomain with BirA biotinylation tag, biolinker and histidine tag (Plasmodium falciparum strain 3D7) (UniProt Q7K740) (assay: SPR, 2A10 on anti-mouse capture surface, CSP as analyte, 25 C, 1:1 fit).
Mouse monoclonal antibody 2A10 (IgG2aK) gave a Kd of 0.04 nM, a koff of 9.41e-05 s⁻¹ and a kon of 2.23e+06 M⁻¹ s⁻¹.
